B1: mAb T2 (antibody, human IgG1, kappa, V domains shown)
VH: EVQLVESGGGLVQPGGSLRLSCAASGFTFTDYTMDWVRQAPGKGLEWVADVNPNSGGSIYNQRFKGRFTLSVDRSKNTLYLQMNSLRAEDTAVYYCARNLGPSFYFDYWGQGTLVTVSS
VL: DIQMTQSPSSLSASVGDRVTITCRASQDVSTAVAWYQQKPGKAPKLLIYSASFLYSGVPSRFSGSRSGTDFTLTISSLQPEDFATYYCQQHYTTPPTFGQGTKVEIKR
notes: Pertuzumab heavy chain with a mutated trastuzumab light chain
B2: mAb T43 (antibody, V domains shown)
VH: EVQLVESGGGLVQPGGSLRLSCAASGFTFADYTMDWVRQAPGKGLEWVADVNPNSGASIYNQRFKGRFTLSVDRSKNTLYLQMNSLRAEDTAVYYCARNLGPSFYFDYWGQGTLVTVSS
VL: DIQMTQSPSSLSASVGDRVTITCRASQDVSTAVAWYQQKPGKAPKLLIYSASFLYYGVPSRFSGSRSGTDFTLTISSLQPEDFATYYCQQHYTWPPTFGQGTKVEIKR
B3: mAb T3 (antibody, human IgG1, kappa, V domains shown)
VH: EVQLVESGGGLVQPGGSLRLSCAASGFTFTDYTMDWVRQAPGKGLEWVADVNPNSGGSIYNQRFKGRFTLSVDRSKNTLYLQMNSLRAEDTAVYYCARNLGPSFYFDYWGQGTLVTVSS
VL: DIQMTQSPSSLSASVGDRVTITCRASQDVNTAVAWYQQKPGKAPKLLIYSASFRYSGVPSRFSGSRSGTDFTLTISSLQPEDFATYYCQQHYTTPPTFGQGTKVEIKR
notes: as for B1
B4: mAb T10 (antibody, human IgG1, kappa, V domains shown)
VH: EVQLVESGGGLVQPGGSLRLSCAASGFTFTDYTMDWVRQAPGKGLEWVADVNPNSGGSIYNQRFKGRFTLSVDRSKNTLYLQMNSLRAEDTAVYYCARNLGPSFYFDYWGQGTLVTVSS
VL: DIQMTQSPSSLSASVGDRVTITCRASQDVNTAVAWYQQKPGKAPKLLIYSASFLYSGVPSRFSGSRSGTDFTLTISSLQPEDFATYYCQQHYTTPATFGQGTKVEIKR
notes: as for B1
B5: mAb T5 (antibody, human IgG1, kappa, V domains shown)
VH: EVQLVESGGGLVQPGGSLRLSCAASGFTFTDYTMDWVRQAPGKGLEWVADVNPNSGGSIYNQRFKGRFTLSVDRSKNTLYLQMNSLRAEDTAVYYCARNLGPSFYFDYWGQGTLVTVSS
VL: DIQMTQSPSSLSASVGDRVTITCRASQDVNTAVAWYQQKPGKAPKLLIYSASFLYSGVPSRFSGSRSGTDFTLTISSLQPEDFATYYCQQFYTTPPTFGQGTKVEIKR
notes: as for B1
B6: mAb T26 (antibody, V domains shown)
VH: EVQLVESGGGLVQPGGSLRLSCAASGFTFADYTMDWVRQAPGKGLEWVADVNPNSGASIYNQRFKGRFTLSVDRSKNTLYLQMNSLRAEDTAVYYCARNLGPSFYFDYWGQGTLVTVSS
VL: DIQMTQSPSSLSASVGDRVTITCKASQDVSIGVAWYQQKPGKAPKLLIYSASYRYTGVPSRFSGSGSGTDFTLTISSLQPEDFATYYCQQYYIYPYTFGQGTKVEIKR
B7: mAb T8 (antibody, human IgG1, kappa, V domains shown)
VH: EVQLVESGGGLVQPGGSLRLSCAASGFTFTDYTMDWVRQAPGKGLEWVADVNPNSGGSIYNQRFKGRFTLSVDRSKNTLYLQMNSLRAEDTAVYYCARNLGPSFYFDYWGQGTLVTVSS
VL: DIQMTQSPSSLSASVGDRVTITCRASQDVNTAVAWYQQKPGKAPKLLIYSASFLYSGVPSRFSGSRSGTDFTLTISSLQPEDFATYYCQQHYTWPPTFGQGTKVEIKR
notes: as for B1
B8: mAb T25 (antibody, V domains shown)
VH: EVQLVESGGGLVQPGGSLRLSCAASGFTFTDYTMDWVRQAPGKGLEWVADVNPNSGASIYNQRFKGRFTLSVDRSKNTLYLQMNSLRAEDTAVYYCARNLGPSFYFDYWGQGTLVTVSS
VL: DIQMTQSPSSLSASVGDRVTITCKASQDVSIGVAWYQQKPGKAPKLLIYSASYRYTGVPSRFSGSGSGTDFTLTISSLQPEDFATYYCQQYYIYPYTFGQGTKVEIKR
notes: Residue 56 counted along the entry is also G
B9: mAb T4 (antibody, human IgG1, kappa, V domains shown)
VH: EVQLVESGGGLVQPGGSLRLSCAASGFTFTDYTMDWVRQAPGKGLEWVADVNPNSGGSIYNQRFKGRFTLSVDRSKNTLYLQMNSLRAEDTAVYYCARNLGPSFYFDYWGQGTLVTVSS
VL: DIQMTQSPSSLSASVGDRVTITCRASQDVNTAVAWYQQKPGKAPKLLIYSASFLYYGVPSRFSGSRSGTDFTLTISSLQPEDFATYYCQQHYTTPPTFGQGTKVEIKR
notes: as for B1
B10: mAb T7 (antibody, human IgG1, kappa, V domains shown)
VH: EVQLVESGGGLVQPGGSLRLSCAASGFTFTDYTMDWVRQAPGKGLEWVADVNPNSGGSIYNQRFKGRFTLSVDRSKNTLYLQMNSLRAEDTAVYYCARNLGPSFYFDYWGQGTLVTVSS
VL: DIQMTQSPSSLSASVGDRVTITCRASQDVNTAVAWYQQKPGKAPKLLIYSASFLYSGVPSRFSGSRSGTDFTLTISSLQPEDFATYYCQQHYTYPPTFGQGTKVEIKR
notes: as for B1
B11: mAb T9 (antibody, human IgG1, kappa, V domains shown)
VH: EVQLVESGGGLVQPGGSLRLSCAASGFTFTDYTMDWVRQAPGKGLEWVADVNPNSGGSIYNQRFKGRFTLSVDRSKNTLYLQMNSLRAEDTAVYYCARNLGPSFYFDYWGQGTLVTVSS
VL: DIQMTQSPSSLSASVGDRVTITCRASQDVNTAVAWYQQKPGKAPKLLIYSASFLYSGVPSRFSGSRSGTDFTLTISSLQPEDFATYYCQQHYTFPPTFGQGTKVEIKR
notes: as for B1
B12: mAb T12 (antibody, V domains shown)
VH: not shown
VL: DIQMTQSPSSLSASVGDRVTITCKASQDVSIGVAWYQQKPGKAPKLLIYSASYRYTGVPSRFSGSGSGTDFTLTISSLQPEDFATYYCQQYYIYPYTFGQGTKVEIKR

Molecular target: T1, HER2 extracellular domain (human, UniProt P04626 23-652)
T1 construct: extracellular domain; also called ErbB2; HER2 ECD
Experiment: ELISA, HER2 ECD coated on plate
Protocol: (§1) The binding potency of antibodies to the antigen HER2 was determined using an ELISA assay. The HER2 extracellular domain was coated overnight on 96-well plates by adding 0.2 ug/100 ul/well of HER2 extracellular domain solution. The plates were washed 6 times with PBS, and blocked with 3% BSA and incubated for 2 hours. The plates were again washed 6 times with PBS. After 1 hour of binding, the plates were washed 6 times with PBS. Horse radish peroxidase (HRP) conjugated secondary antibody was added and incubated for 1 hr. HRP substrate TMB was added to each well and luminescence was read on plate reader. The data were then fitted into 4-parameter sigmoidal curve to generate IC50. Each sample was run in triplicate.

Binding result, binds:
B1
B2
B3
B4
B5
B6
B7
B8
B9
B10
B11

Molecular target: T1, HER2 extracellular domain
Experiment: ELISA, HER2 ECD coated on plate; T12 is the weaker comparator
Protocol: as §1

Binding result, binds:
B12
